B1: Chromodomain-helicase-DNA-binding protein 7, residues 2564 to 2605; numbered along this chain, Q9P2D1 (parent)
chain: DPDTRIPVINLEDGTRLVGEDAPKNKDLVEWLKLHPTYTVDM

Variants of: B1
Assay: abundance fitness (aPCA) (normalised: wild type 0, dead -1); higher = more abundant; growth selection in yeast, the domain comes from the species named
Conditions: Homo sapiens

Abundance fitness, by site and new letter:
E30: C -0.253, Q -0.187, I -0.608, P -0.345, R -0.277, W -0.529, A 0.027, D 0.008, H -0.262, N -0.065, L -0.497, G -0.145, V -0.391, F -0.591, T -0.022, S -0.023, M -0.313, K -0.333
T37: D -0.09, R -0.05, S -0.058, I -0.221, W -0.231, P -0.281, M -0.082, F -0.727, A -0.131, E -0.202, Q -0.273, G 0.022, L -0.159, N -0.059, H -0.014
V40: E -0.238, L -0.381, R -0.065, K -0.11, Q -0.108, F -0.59, G -0.367, C -0.152, T -0.08, P -0.166, H -0.372, D -0.295, A 0.135, N -0.341, I -0.135, M -0.379, S -0.144
K26: I -0.255, D -0.258, V -0.166, S -0.106, H 0.203, C -0.166, Y -0.481, L -0.559, Q -0.039, P -0.56, A -0.068, N -0.276, W -0.639, E 0.154, R -0.081, G -0.208, M -0.278, F -0.486, T -0.361
E20: W -0.447, Y -0.395
W31: R -0.363, L -0.492, Y -0.297, F 0.223, I -0.463, S -0.38, C -0.301, A -0.166, M -0.196, T -0.398, G -0.163, Q -0.569, D -0.128, V -0.336, P -0.141, E -0.099
D41: G -0.335, I -0.871, E -0.179, C -0.531, H -0.364, K -1.14, L -0.594, A -0.396
D27: R -0.649, Y -0.417, F -0.405, I -0.438, L -0.678, K -0.517, C -0.175, H -0.224, W -0.563, P -0.88, T -0.526, S -1.11, V -0.448, E -0.23, M -0.727, A -0.4, G -0.38, N 0.019
L34: D -0.042, E 0.048, C -0.002, A 0.141, I -0.417, H -0.037, Y -0.251, P -0.328, M 0.011, T 0.03, F -0.334, N -0.014, V -0.039, G -0.047, K -0.029
Y38: E -0.387, H -0.216, V -0.652, C -0.445, K -0.321, D -0.278, S -0.297, W 0.085, T -0.331, R -0.449, P -0.916, L -0.632, G -0.327, N -0.459, I -1.02, A -0.447, F -0.128
K33: L -0.17, G -0.215, A 0.162, S -0.01, C -0.4, I -0.449, W -0.319, E -0.04, D -0.01, H -0.22, T -0.468, F -0.339, N -0.095, V -0.261
P23: V -0.658, K -0.515, C -0.497, M -0.654, I -0.496, Y -1.1, N -0.915, R -0.843, H -0.679, F -0.784, E -0.684, L -0.725, Q -0.252, W -1.09, A -1.35, S -0.79
A22: I -0.483, H -0.306, C -0.168, W -1.04, P -0.622, R -0.477, D -0.565, T -0.527, N -0.519, M -0.673, L -0.539, E -0.839, S -0.358, Y -1.03, V -0.79, F -0.466
L32: S -0.255, I -0.434, A -0.537, V -0.586, W -0.574, T -0.334, C -0.343, N -0.342, D -0.332, E -0.324, R -0.332, G -0.214, F -0.375
K24: S -0.206, W -0.426, P -0.449, V -0.475, I -0.165, C -0.094, Y -0.237, L -0.099, M 0.274, A -0.022, Q -0.243, D -0.489, H -0.107, F -0.444, R -0.188, G -0.552, T -0.047
L28: F -0.24, A -0.292, P -0.568, E -0.41, V -0.185, Y -0.499, G -0.401, T -0.355, W -0.827, I -0.129, M -0.321, Q -0.841, H -0.134, K -0.454, D -0.432, S -0.39, N -0.524
V29: N 0.126, G -0.081, M -0.095, K 0.229, F -0.168, E 0.052, S 0.063, C -0.087, A 0.11, D -0.022, P 0.063, W -0.416, I -0.15, L -0.109, R 0.121, H 0.098, T 0.169
H35: V -0.751, E -0.615, L -0.866, D -0.547, C -0.866, N -0.064, F -0.744, M -0.469, G -0.758, T -0.616, K -0.546, W -0.764, Y -0.593, Q -0.56
D21: N -0.054, A -0.279, P -0.378, F -0.17, M -0.161, I -0.512, E -0.207, L -0.161, Y -0.165, Q -0.018, S -0.093, C -0.07, V -0.508, W -0.442, T -0.246, H -0.109, K -0.134, R -0.316
T39: S -0.038, L -0.42, K 0.076, E 0.046, G -0.295, W -0.835, C -0.212, N -0.162, A -0.279, V -0.004, Y -0.347, F -0.639, Q 0.006, R 0.002, H -0.186, I -0.158, P -0.771, M -0.382
N25: C -0.274, S -0.101, L -0.252, T -0.131, M -0.086, D -0.122, G -0.157, F -0.249, K 0.095, W -0.418, Y -0.253, P -0.4, R -0.1, A -0.206, I -0.326
P36: R -0.401, K -0.321, C -0.78, N -0.36, W -0.731, H -0.492, L -0.81, G -0.484, S -0.457, E -0.406, A -0.561, I -0.65, Q -0.461, D -0.685

From the Human Domainome abundance scans (Beltran et al. 2025)
